Literature values, collected in article PMC3633488.

Target: FGF-2 (Homo sapiens) (UniProt P09038)

Kd: 0.07 µM
Substance: perlecan (from UniProt P98160)
